For experiment [1], the target named is T1, cysteine-rich domain (CRD) of human Fzd4 (UniProt Q9ULV1 40-161).
T1 chain: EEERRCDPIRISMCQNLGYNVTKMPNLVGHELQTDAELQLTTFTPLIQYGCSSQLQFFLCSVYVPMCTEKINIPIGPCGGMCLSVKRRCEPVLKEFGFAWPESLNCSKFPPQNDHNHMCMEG
Nature of the experiment: BLI. (In general: Biolayer interferometry detects binding as a change in optical thickness at a sensor tip.)

Experiment [2] deals with T1, cysteine-rich domain (CRD) of human Fzd4. The experiment in a line: SPR; apparent KD, average of four capture concentrations. Background: Surface plasmon resonance follows binding to a sensor surface in real time, without labels.

B1: 4SD1-03_LALAPG (bispecific antibody)
heavy: EVQLVESGGGLVKPGGSLRLSCAASGFTFTNYAMSWVRQAPGKGLEWVSAISGSGGSTYYADSVKGRFTISRDDSKNTLYLQMNSLKTEDTAVYYCARATGFGTVVFDYWGQGTLVTVSSASTKGPSVFPLAPSSKSTSGGTAALGCLVKDYFPEPVTVSWNSGALTSGVHTFPAVLQSSGLYSLSSVVTVPSSSLGTQTYICNVNHKPSNTKVDKKVEPKSCDKTHTCPPCPAPEAAGGPSVFLFPPKPKDTLMISRTPEVTCVVVDVSHEDPEVKFNWYVDGVEVHNAKTKPREEQYNSTYRVVSVLTVLHQDWLNGKEYKCKVSNKALGAPIEKTISKAKGQPREPQVYTLPPSREEMTKNQVSLTCLVKGFYPSDIAVEWESNGQPENNYKTTPPVLDSDGSFFLYSKLTVDKSRWQQGNVFSCSVMHEALHNHYTQKSLSLSPGK
light: not shown
As to B1, the Kd in experiment [1] is 44.7 nM; in experiment [2], 729 nM.
